Test [1] concerns the target SARS-CoV-2 RBD titrated over immobilised Fabs (construct not stated) (SARS-CoV-2, UniProt P0DTC2 319-541). The experiment in a line: BLI.
Test [2] has as its target SARS-CoV-2 spike RBD (S-RBD), hFc tag removed by thrombin digestion, biotinylated (SARS-CoV-2, UniProt P0DTC2 319-541). The experiment in a line: BLI.

B1: S-B8 Fab (Fab, V domains shown)
VH: QVQLVQSGGGLIQPGGSLRLSCAASGFTVSLSHMNWVRQAPGKGLEWVSITYGDGNSDYADSVKGRFTISRDNSKNTLYLQMNSLRAEDTAVYYCAREYYYGMDVWGQGTTVTVSS
VL: not shown
Regarding B1, the koff (commonly the rate constant with which the complex falls apart) in test [1] is 0.0027 s⁻¹.

B2: S-B8 full-length human IgG4e1(S228P) antibody (antibody, V domains shown)
VH: QVQLVQSGGGLIQPGGSLRLSCAASGFTVSLSHMNWVRQAPGKGLEWVSITYGDGNSDYADSVKGRFTISRDNSKNTLYLQMNSLRAEDTAVYYCAREYYYGMDVWGQGTTVTVSS
VL: not shown
Consider B2, for which the off-rate (koff) in test [2] is 0.00267 s⁻¹.

B3: S-E6 full-length human IgG4e1(S228P) antibody (antibody, V domains shown)
VH: QVTLRESGPGLVKPSETLSLTCAVSGGSLSSVNYYWSWIRQHPGKGLEWIGYIYYSGSTNYNPSLKSRVTMSLDTSKNQFSLKLSSVTAADTAVYYCATPGAIMGALHIWGQGTLVTVSS
VL: QAVLTQPSSASSTPGQRVIISCSGSSSNIGSNTVSWYQQVPGAAPKLLIYFDYRRPSGVPDRFSGTRSGTSASLGISGLQSEDEADYYCAAWDDSLSAWVFGRGTKLTVL
Take B3: the koff in test [2] came out at 0.000865 s⁻¹.

B4: S-E6 Fab (Fab, V domains shown)
VH: QVTLRESGPGLVKPSETLSLTCAVSGGSLSSVNYYWSWIRQHPGKGLEWIGYIYYSGSTNYNPSLKSRVTMSLDTSKNQFSLKLSSVTAADTAVYYCATPGAIMGALHIWGQGTLVTVSS
VL: QAVLTQPSSASSTPGQRVIISCSGSSSNIGSNTVSWYQQVPGAAPKLLIYFDYRRPSGVPDRFSGTRSGTSASLGISGLQSEDEADYYCAAWDDSLSAWVFGRGTKLTVL
B4: in test [1], the koff turned out to be 0.00196 s⁻¹.

Values taken from PMC8646600 (2021).
